Assay results from the supplement of paper PMC9112550, “Optimization of the antimicrobial peptide Bac7 by deep mutational scanning” (BMC Biology, 2022).

What follows are sequences tested on Escherichia coli TOP10 (assay: shrunken log2 fold change of peptide-encoding DNA abundance (4.5 h post-induction vs induction); higher = less antimicrobial activity (less host growth inhibition)). Conditions: time post-induction: 4.5 h; library: site-saturation at positions 5, 18, 19, 20.
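Note: peptides expressed intracellularly from a pBAD plasmid library in pooled LB shake-flask culture, induced with 0.3% L-arabinose, DNA abundance read by NGS, three biological replicates, DESeq2 with apeglm shrinkage.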

Sequence | shrunken log2 fold change
RRIRQRPPRLPRPRPRPQKHPRP | -0.324
RRIRHRPPRLPRPRPRPLCLPRP | -0.368
RRIRCRPPRLPRPRPRPCAEPRP | 0.0802
RRIRARPPRLPRPRPRPGACPRP | 0.783
RRIRARPPRLPRPRPRPQKQPRP | -0.00111
RRIRARPPRLPRPRPRPYGPPRP | -0.264
RRIRMRPPRLPRPRPRPQTCPRP | 0.0193
RRIRPRPPRLPRPRPRPARVPRP | 0.295
RRIRVRPPRLPRPRPRPHEHPRP | -0.0873
RRIRKRPPRLPRPRPRPHWWPRP | 0.119
RRIRARPPRLPRPRPRPTYYPRP | -0.119
RRIRKRPPRLPRPRPRPWNRPRP | -0.078
RRIRERPPRLPRPRPRPDPVPRP | 0.181
RRIRARPPRLPRPRPRPNITPRP | -0.0796
RRIRCRPPRLPRPRPRPTINPRP | -0.783
RRIRKRPPRLPRPRPRPLQYPRP | -0.0563
RRIRHRPPRLPRPRPRPMVAPRP | 0.195
RRIRHRPPRLPRPRPRPWSWPRP | -0.304
RRIRVRPPRLPRPRPRPPVRPRP | 0.267
RRIRKRPPRLPRPRPRPYKEPRP | -0.417
RRIRSRPPRLPRPRPRPIMRPRP | 0.73
RRIRVRPPRLPRPRPRPARTPRP | 0.147
RRIRCRPPRLPRPRPRPMIHPRP | -0.466
RRIRVRPPRLPRPRPRPRAPPRP | 0.831
RRIRPRPPRLPRPRPRPMLGPRP | 0.252

Sequence | shrunken log2 fold change
RRIRGRPPRLPRPRPRPIPFPRP | 0.266
RRIRNRPPRLPRPRPRPFDRPRP | 0.0368
RRIRGRPPRLPRPRPRPSRLPRP | 0.204
RRIRSRPPRLPRPRPRPEMPPRP | 0.00153
RRIRKRPPRLPRPRPRPGKKPRP | -0.0204
RRIRTRPPRLPRPRPRPYWDPRP | -0.0758
RRIRDRPPRLPRPRPRPTPMPRP | 0.234
RRIRKRPPRLPRPRPRPRIVPRP | 0.161
RRIRNRPPRLPRPRPRPKAHPRP | 0.18
RRIRQRPPRLPRPRPRPAKMPRP | -0.207
RRIRPRPPRLPRPRPRPFLYPRP | -0.138
RRIRHRPPRLPRPRPRPSTIPRP | -0.0522
RRIRCRPPRLPRPRPRPFAVPRP | -0.169
RRIRIRPPRLPRPRPRPIKGPRP | -0.068
RRIRYRPPRLPRPRPRPPDIPRP | -0.157
RRIRVRPPRLPRPRPRPMKEPRP | -0.04
RRIRLRPPRLPRPRPRPLETPRP | -0.0757
RRIRTRPPRLPRPRPRPLIGPRP | -0.413
RRIRGRPPRLPRPRPRPECPPRP | 0.475
RRIRHRPPRLPRPRPRPNMWPRP | -0.799
RRIRVRPPRLPRPRPRPAKTPRP | 0.0432
RRIRYRPPRLPRPRPRPIIKPRP | -1.25
RRIRWRPPRLPRPRPRPIYWPRP | -0.208
RRIRYRPPRLPRPRPRPRFRPRP | -0.213
RRIRRRPPRLPRPRPRPHMEPRP | 0.0679

Sequence | shrunken log2 fold change
RRIRVRPPRLPRPRPRPERMPRP | -0.0652
RRIRDRPPRLPRPRPRPKICPRP | 0.0258
RRIRMRPPRLPRPRPRPVYKPRP | -0.014
RRIRNRPPRLPRPRPRPCTNPRP | 0.00408
RRIRCRPPRLPRPRPRPKDKPRP | 0.401
RRIRQRPPRLPRPRPRPFYRPRP | -0.0149
RRIRCRPPRLPRPRPRPYEIPRP | -0.00133
RRIRYRPPRLPRPRPRPCWIPRP | -0.01
RRIRHRPPRLPRPRPRPQTCPRP | -0.653
RRIRRRPPRLPRPRPRPSTCPRP | 0.0254
RRIRMRPPRLPRPRPRPLTRPRP | 0.608
RRIRYRPPRLPRPRPRPRVAPRP | 0.0343
RRIRFRPPRLPRPRPRPWNPPRP | -0.222
RRIRRRPPRLPRPRPRPNKDPRP | 0.202
RRIRARPPRLPRPRPRPQHEPRP | 0.0966
RRIRDRPPRLPRPRPRPIHPPRP | -0.125
RRIRRRPPRLPRPRPRPYTQPRP | -0.141
RRIRGRPPRLPRPRPRPWANPRP | 0.0528
RRIRHRPPRLPRPRPRPWIIPRP | 0.00956
RRIRVRPPRLPRPRPRPNETPRP | -0.033
RRIRWRPPRLPRPRPRPLYEPRP | -0.255
RRIRERPPRLPRPRPRPAMGPRP | -0.0135
RRIRFRPPRLPRPRPRPMFGPRP | 0.312
RRIRMRPPRLPRPRPRPNFRPRP | 0.0542
RRIRQRPPRLPRPRPRPSGTPRP | 0.0732

Sequence | shrunken log2 fold change
RRIRMRPPRLPRPRPRPTYKPRP | -0.0666
RRIRIRPPRLPRPRPRPVRAPRP | 0.172
RRIRWRPPRLPRPRPRPRPWPRP | 0.289
RRIRSRPPRLPRPRPRPMAMPRP | 0.0808
RRIRHRPPRLPRPRPRPWNAPRP | -0.0678
RRIRKRPPRLPRPRPRPEHPPRP | 0.822
RRIRRRPPRLPRPRPRPGGWPRP | 0.824
RRIRRRPPRLPRPRPRPMKDPRP | 0.19
RRIRTRPPRLPRPRPRPAESPRP | 0.0351
RRIRDRPPRLPRPRPRPAFKPRP | 0.0611
RRIRSRPPRLPRPRPRPTQKPRP | 0.375
RRIRKRPPRLPRPRPRPHAQPRP | 0.133
RRIRFRPPRLPRPRPRPGMQPRP | 0.237
RRIRPRPPRLPRPRPRPQSFPRP | 0.0475
RRIRLRPPRLPRPRPRPSAGPRP | -0.0364
RRIRHRPPRLPRPRPRPKCWPRP | 0.123
RRIRLRPPRLPRPRPRPCFNPRP | -0.774
RRIRGRPPRLPRPRPRPCGYPRP | 0.216
RRIRCRPPRLPRPRPRPKPGPRP | 0.503
RRIRGRPPRLPRPRPRPLVGPRP | 0.439
RRIRDRPPRLPRPRPRPNWWPRP | 0.22
RRIRIRPPRLPRPRPRPTQMPRP | 0.565
RRIRKRPPRLPRPRPRPAVVPRP | 0.0614
RRIRPRPPRLPRPRPRPDHQPRP | -0.0869
RRIRHRPPRLPRPRPRPDVMPRP | -0.374

Sequence | shrunken log2 fold change
RRIRFRPPRLPRPRPRPCVKPRP | -0.123
RRIRERPPRLPRPRPRPVMNPRP | -0.0808
RRIRERPPRLPRPRPRPSAEPRP | 0.0172
RRIRRRPPRLPRPRPRPHSEPRP | 0.0888
RRIRFRPPRLPRPRPRPLICPRP | -0.286
RRIRFRPPRLPRPRPRPPFEPRP | 0.347
RRIRSRPPRLPRPRPRPQSHPRP | -0.216
RRIRWRPPRLPRPRPRPKKTPRP | 0.0382
RRIRGRPPRLPRPRPRPFPYPRP | -0.334
RRIRVRPPRLPRPRPRPWDRPRP | 0.0372
RRIRNRPPRLPRPRPRPCAMPRP | -0.132
RRIRHRPPRLPRPRPRPFQAPRP | -0.312
RRIRTRPPRLPRPRPRPFKIPRP | -0.0514
RRIRQRPPRLPRPRPRPAGLPRP | -0.158
RRIRSRPPRLPRPRPRPICMPRP | 0.177
RRIRWRPPRLPRPRPRPQQQPRP | 0.108
RRIRYRPPRLPRPRPRPIENPRP | -0.0122
RRIRRRPPRLPRPRPRPLSCPRP | -0.146
RRIRARPPRLPRPRPRPDNEPRP | 0.301
RRIRQRPPRLPRPRPRPTYAPRP | -0.0832
RRIRLRPPRLPRPRPRPKTRPRP | 0.226
RRIRFRPPRLPRPRPRPNWWPRP | -0.0248
RRIRIRPPRLPRPRPRPAYKPRP | -1.89
RRIRSRPPRLPRPRPRPMDPPRP | 0.00928
RRIRVRPPRLPRPRPRPGAQPRP | 0.00624

Sequence | shrunken log2 fold change
RRIRTRPPRLPRPRPRPGMCPRP | -0.139
RRIRLRPPRLPRPRPRPFFAPRP | 0.169
RRIRCRPPRLPRPRPRPYFYPRP | -1
RRIRSRPPRLPRPRPRPETPPRP | 1.01
RRIRPRPPRLPRPRPRPHHHPRP | -0.532
RRIRERPPRLPRPRPRPHQWPRP | -0.199
RRIRGRPPRLPRPRPRPTMDPRP | 0.985
RRIRRRPPRLPRPRPRPLMVPRP | -0.161
RRIRDRPPRLPRPRPRPYRLPRP | -0.0389
RRIRDRPPRLPRPRPRPKQHPRP | 0.0788
RRIRQRPPRLPRPRPRPIYSPRP | -0.1
RRIRSRPPRLPRPRPRPNPCPRP | -0.574
RRIRARPPRLPRPRPRPNSSPRP | 0.184
RRIRTRPPRLPRPRPRPSSMPRP | -0.239
RRIRIRPPRLPRPRPRPGFMPRP | -0.487
RRIRIRPPRLPRPRPRPPWHPRP | -0.126
RRIRSRPPRLPRPRPRPCNDPRP | -0.261
RRIRIRPPRLPRPRPRPVEQPRP | 0.107
RRIRQRPPRLPRPRPRPIQIPRP | -0.105
RRIRYRPPRLPRPRPRPFGPPRP | -0.0934
RRIRSRPPRLPRPRPRPFSEPRP | 0.00901
RRIRCRPPRLPRPRPRPYPTPRP | -0.517
RRIRNRPPRLPRPRPRPIYPPRP | -0.246
RRIRRRPPRLPRPRPRPMYGPRP | -0.0152
RRIRTRPPRLPRPRPRPNGCPRP | 0.0101
